# Experimental data from PMC9084902, “Low-Molecular Weight Protamine Overcomes Chondroitin Sulfate Inhibition of Neural Regeneration” (Frontiers in Cell and Developmental Biology, 2022).
# Ends that are not written are not given here.
# B1: recombinant ectodomain of PTPσ mutated in a critical lysine residue: PTPσ mutant lacking the CS binding site in the Ig1 domain, Fc-tagged, produced in 293T HEK cells (protein, UniProt Q13332 30-1282, looked up)
# extracellular domain: EEPPRFIKEPKDQIGVSGGVASFVCQATGDPKPRVTWNKKGKKVNSQRFETIEFDESAGAVLRIQPLRTPRDENVYECVAQNSVGEITVHAKLTVLREDQLPSGFPNIDMGPQLKVVERTRTATMLCAASGNPDPEITWFKDFLPVDPSASNGRIKQLRSETFESTPIRGALQIESSEETDQGKYECVATNSAGVRYSSPANLYVRELREVRRVAPRFSILPMSHEIMPGGNVNITCVAVGSPMPYVKWMQGAEDLTPEDDMPVGRNVLELTDVKDSANYTCVAMSSLGVIEAVAQITVKSLPKAPGTPMVTENTATSITITWDSGNPDPVSYYVIEYKSKSQDGPYQIKEDITTTRYSIGGLSPNSEYEIWVSAVNSIGQGPPSESVVTRTGEQAPASAPRNVQARMLSATTMIVQWEEPVEPNGLIRGYRVYYTMEPEHPVGNWQKHNVDDSLLTTVGSLLEDETYTVRVLAFTSVGDGPLSDPIQVKTQQGVPGQPMNLRAEARSETSITLSWSPPRQESIIKYELLFREGDHGREVGRTFDPTTSYVVEDLKPNTEYAFRLAARSPQGLGAFTPVVRQRTLQSKPSAPPQDVKCVSVRSTAILVSWRPPPPETHNGALVGYSVRYRPLGSEDPEPKEVNGIPPTTTQILLEALEKWTQYRITTVAHTEVGPGPESSPVVVRTDEDVPSAPPRKVEAEALNATAIRVLWRSPAPGRQHGQIRGYQVHYVRMEGAEARGPPRIKDVMLADAQWETDDTAEYEMVITNLQPETAYSITVAAYTMKGDGARSKPKVVVTKGAVLGRPTLSVQQTPEGSLLARWEPPAGTAEDQVLGYRLQFGREDSTPLATLEFPPSEDRYTASGVHKGATYVFRLAARSRGGLGEEAAEVLSIPEDTPRGHPQILEAAGNASAGTVLLRWLPPVPAERNGAIVKYTVAVREAGALGPARETELPAAAEPGAENALTLQGLKPDTAYDLQVRAHTRRGPGPFSPPVRYRTFLRDQVSPKNFKVKMIMKTSVLLSWEFPDNYNSPTPYKIQYNGLTLDVDGRTTKKLITHLKPHTFYNFVLTNRGSSLGGLQQTVTAWTAFNLLNGKPSVAPKPDADGFIMVYLPDGQSPVPVQSYFIVMVPLRKSRGGQFLTPLGSPEDMDLEELIQDISRLQRRSLRHSRQLEVPRPYIAARFSVLPPTFHPGDQKQYGGFDNRGLEPGHRYVLFVLAVLQKSEPTFAASPFSDPFQLDNPDPQPIVDGEEG
# modifications: extracellular domain lysine mutation in Ig1 (position not given); Fc tag
# Tests used:
# brain cortex tissue = experiment: in vivo TUNEL apoptosis assay after cortical injection; details: 1.5 μl cortical injection, 0.1 or 1 mg/ml, 3 days
# Description: For TUNEL apoptosis assay, 1.5 μl of protamine (0.1 mg/ml or 1 mg/ml) or LMWP (0.1 mg/ml or 1 mg/ml) was bilaterally injected to the adult C57Bl6 mouse (n = 10 total) into motor (ML: 1.5; AP: 2) and somatosensory (ML: 1.5; AP: −1.8) cerebral cortex 500–700 micrometers below the brain surface (4 injection sites per concentration of injected protamine and 6 injections per concentration of injected LMWP). After 3 days the animals were anesthetized with pentobarbital sodium and perfused with PBS and then 4%PFA. After paraffine embedding the brains were cut into 7 µm coronal sections. Staining was performed according to the protocol recommended by the commercial TUNEL assay kit (Dead End Fluorometric TUNEL System, Promega). Sections treated with DNase I were used as positive controls. Vectoshield medium with DAPI (Vector Laboratories) was used to visualize nuclei. Images were collected with Axio Imager M.1 fluorescent microscope (Zeiss), AxioCam HR3 digital camera and x10 0.45 NA objective (Carl Zeiss Microscopy) and analyzed with automatic cell counting using FIJI software (Image J, open-source). The fractions of TUNEL positive cells were calculated and averaged over 5 sections per mouse per injection place.
# hippocampal neurons [1] = experiment: neurite outgrowth on precoated plastic without aggrecan, hippocampal neurons; assay type: cell-based, Wistar rat; details: precoated 10 μg/ml on plastic, no aggrecan, 2 days; about 70 neurons/replicate; p < 0.0001, n = 7
# Description: The cortex or hippocampus were obtained from 17 days-old Wistar rat embryos and transferred to ice-cold preparation solution. Neurons were further isolated exactly as described earlier in Sahu’s publication ([Sahu et al., 2019]). Primary rat cortical or hippocampal neurons (E17 Wistar rats) were cultured in 96-well plates at the density of 20000 cells/well in Neurobasal medium supplemented with B27 serum substitute, penicillin, streptomycin and L-glutamate for 2 days in vitro (DIV). The plates were precoated with aggrecan (5 ug/ml, 150 µl/well). Protamine or protamine peptides were added to the culture medium at different concentrations. To analyze the effect of protamine or its fragment on neurite outgrowth, the plates were coated with 10 μg/ml of protamine or LMWP. For the experiment with chondroitinase, the aggrecan-coated plates were treated with chondroitinase ABC (Amsbio AMS. E1028, lot CF0029) for 4 h followed by 2 times washing with PBS before cell plating, and the cell culture imaging was carried out after 3 DIV incubation with 4 uM LMWP added to the medium. Neurite outgrowth was imaged with phase contrast microscopy (Olympus IX70 microscope and Retiga 2000R digital camera) using both x10 and x20 objectives. […] Neurite length was measured with ImageJ software and averaged from 2 to 3 independent experiments with 1–2 technical replicas in each independent experiment.
# [2] = tested on: oligodendrocyte differentiation; details: ref Kuboyama et al., 2017; cited from earlier work
# Description: The CS chains even enhance the neurite outgrowth-promoting effect of HB-GAM, and we have ended up in a model according to which the CS chains of the CSPGs display a positive role by concentrating HB-GAM on the matrix and presenting it to neuron surface receptors. According to our model, two polycationic regions separated by a linker are essential to reverse the CS inhibition of neurite outgrowth ([Paveliev et al., 2016]; [Rauvala et al., 2017]). To test our hypothesis we decided to search for peptide structures that are similar to HB-GAM and display similar binding properties. Protamine displa ...
# [3] = ref Kaneda et al., 2005; Bromfield et al., 2013; cited from earlier work
# Description: Protamine is a small 33 amino acid long protein that takes part in DNA packing during spermatogenesis ([Kasinsky et al., 2011]). Over 60% of the salmon protamine sequence is comprised of arginines so that it interacts strongly with negatively charged DNA phosphates in vivo and potentially with any other negatively charged molecules. […] Protamine sulfate is therefore widely used as a drug in cardiopulmonary bypass surgery to stop the effect of heparin ([Kaneda et al., 2005]; [Bromfield et al. ... || The CS chains even enhance the neurite outgrowth-promoting effect of HB-GAM, and we have ended up in a model according to which the CS chains of the CSPGs display a positive role by concentrating HB-GAM on the matrix and presenting it to neuron surface receptors. According to our model, two polycationic regions separated by a linker are essential to reverse the CS inhibition of neurite outgrowth ([Paveliev et al., 2016]; [Rauvala et al., 2017]). To test our hypothesis we decided to search for peptide structures that are similar to HB-GAM and display similar binding properties. Protamine displa ...
# hippocampal neurons [4] = experiment: cell toxicity seen in neuronal morphology / neuronal cells in vitro; assay type: cell-based, Wistar rat
# Description: (§1) The cortex or hippocampus were obtained from 17 days-old Wistar rat embryos and transferred to ice-cold preparation solution. Neurons were further isolated exactly as described earlier in Sahu’s publication ([Sahu et al., 2019]). Primary rat cortical or hippocampal neurons (E17 Wistar rats) were cultured in 96-well plates at the density of 20000 cells/well in Neurobasal medium supplemented with B27 serum substitute, penicillin, streptomycin and L-glutamate for 2 days in vitro (DIV). The plates were precoated with aggrecan (5 ug/ml, 150 µl/well). Protamine or protamine peptides were added to the culture medium at different concentrations. To analyze the effect of protamine or its fragment on neurite outgrowth, the plates were coated with 10 μg/ml of protamine or LMWP. For the experiment with chondroitinase, the aggrecan-coated plates were treated with chondroitinase ABC (Amsbio AMS. E1028, lot CF0029) for 4 h followed by 2 times washing with PBS before cell plating, and the cell culture imaging was carried out after 3 DIV incubation with 4 uM LMWP added to the medium. Neurite outgrowth was imaged with phase contrast microscopy (Olympus IX70 microscope and Retiga 2000R digital camera) using both x10 and x20 objectives. Processes of neurons over the diameter of the neuronal soma were interpreted as neurites. Neurite length was measured with ImageJ software and averaged from 2 to 3 independent experiments with 1–2 technical replicas in each independent experiment.
# [5] = tested on: PTPRZ (protein tyrosine phosphatase receptor type Z); details: ref Kuboyama et al., 2017; cited from earlier work
# Description: In the case of HB-GAM we have identified glypican-1 as a neuron surface receptor using unbiased mass spectrometry search of neuron binding sites for the substrate-attached HB-GAM ([Paveliev et al., 2016]). […] Interaction of glypican-1 with LMWP also appears likely since LMWP binds to heparin/heparan sulfate chains. Another possible cell surface receptor of LMWP is the transmembrane receptor PTPRZ (protein tyrosine ph ...
# hippocampal neurons [6] = experiment: neurite outgrowth on aggrecan substrate, hippocampal neurons; assay type: cell-based, Wistar rat; details: hippocampal neurons (E17 rat), 2 days on aggrecan; 10 μg/ml, precoated with aggrecan or soluble in medium; about 70 neurons/replicate, normalized to control; n = 3; Figure 2L
# Description: as §1
# [7] = attenuated total reflectance Fourier transform infrared spectroscopy; ref Umerska et al., 2015; cited from earlier work
# Description: Chondroitin sulfates (CS) bare multiple negative charges due to sulfate and carboxyl groups while protamine is a polycation at physiological pH values. […] As an FDA-approved drug for human use as anti-heparin, protamine might in addition have potential to overcome the regeneration inhibiting effe ...
# cervical spinal cord = experiment: distribution of fluorescent LMWP to spinal cord after subcutaneous administration; assay type: in vivo, mouse; details: 2 h, confocal
# Description: The TAMRA-labelled LMWP was obtained from commercial provider Caslo ApS (DK-2800, Kongens Lyngby, Denmark). Sixteen micrograms of TAMRA-LMWPor unconjugated TAMRA (in 200 ul of 0.9% NaCl) was injected subcutaneously to upper back area to healthy adult mice (n = 2–3 animals/group). At the end of the experiment (2 h after injection), the animals were perfused with PBS and then with 4% paraformaldehyde (PFA) in PBS. The spinal cord was dissected and further fixed in PFA overnight. One hundred µm-thick longitudinal sections of the cervical spinal cord were cut with vibratome and imaged with Zeiss LSM880 confocal, 20x objective.
# [8] = solid phase binding of mutated PTPσ ectodomain to aggrecan; details: 80 nM, 10 μg/ml aggrecan coating, overnight 4°C, HRP anti-Fc/OPD 492 nm
# Description: The N-terminal extracellular part of PTPσ (protein tyrosine phosphatase sigma; PTPRS) that contains the three Ig domains (amino acids 1-321) and mediates CSPG binding ([Shen et al., 2009]) was cloned using the PTPσ cDNA kindly provided by Dr. John Flanagan (Harvard University). The PTPσ mutant lacking the CS binding site in the Ig1 domain was produced as described ([Shen et al., 2009]). The recombinants were produced as Fc-tagged proteins in 293T HEK cells and purified on protein A Sepharose.
# The competition assay for LMWP in binding of PTPσ to aggrecan was done in a similar way as earlier ([Paveliev et al., 2016]). Briefly, after overnight coating with 10 μg/ml aggrecan (150 ul/well) at 4°C 96-well tissue culture plates (Nunc) were washed two times with 0.05% Tween-20 in PBS and were blocked for 1 h at room temperature with 1%BSA and 0.05% Tween-20 in PBS. The recombinant wild type PTPσ ectodomain or the mutated ectodomain lacking CS binding (80 nM) were mixed with different concentrations of LMWP in 1% BSA and 0.05% Tween-20 in PBS, and were incubated in the plates overnight at 4°C. After washing with 0.05% Tween20 (3 times, room temperature), the wells were incubated for 1 h (room temperature) with HRP conjugated goat anti-human FC part of IgG (1:5000, in 1% BSA and 0.05% Tween20 PBS) to detect the bound PTPσ. […]
molecule,measurement,setting,value
protamine,apoptotic cells in brain cortex (TUNEL staining),brain cortex tissue,high amount of apoptotic cells in brain cortex tissue
same,total neurite length versus uncoated control,hippocampal neurons [1],increased the total neurite length as compared to the parallel control cultures
same,effect on CSPG-mediated inhibition of oligodendrocyte differentiation,[2],neutralizes the CSPG-mediated inhibition of oligodendrocyte differentiation
same,affinity for heparin,[3],binds the glycosaminoglycan heparin with high affinity
same,signs of cell toxicity in neuronal morphology,"hippocampal neurons [4]; hippocampal neurons, 2 days on aggrecan, 10 μg/ml, black arrows point to dead cells, Figure 2E,G",Signs of cell toxicity were observed in neuronal morphology
same,toxicity for neuronal cells (summary),"hippocampal neurons [4]; neuronal systems, Figures 2, 4",toxic for neuronal cells
same,binding to PTPRZ,[5],known to bind protamine
same,reversal of the inhibitory effect of aggrecan on neurite outgrowth (comparison among fragments),hippocampal neurons [6],lower efficacy in the neurite outgrowth assay
same,polyion complexation with CS,[7],Polyion complexation of CS with protamine was demonstrated
"TAMRA-LMWP: fluorescent TAMRA-labelled LMWP (Caslo ApS) (VSRRRRRRGGRRRR; also: TAMRA label, site not given here)",fluorescent signal in spinal cord parenchyma,"cervical spinal cord; 16 µg s.c. in 200 µl 0.9% NaCl, compared to TAMRA or noninjected animals, n = 2–3",clear fluorescent signal in the spinal cord parenchyma
same,parenchymal accumulation in spinal cord,"cervical spinal cord; 16 µg s.c., cervical region",Parenchymal accumulation
same,perivascular accumulation in spinal cord,"cervical spinal cord; 16 µg s.c., cervical region",Perivascular accumulation
B1,binding to CS chains of aggrecan,[8],lacks the ability to bind to CS chains of the aggrecan substrate
